From publication PMC9175492 come the findings set out here.

Assay [1] addresses LgBit, an 18-kDa subunit of NanoLuc. In words: split reporter.
Assay [2] deals with proteins in FBS (bovine (fetal bovine serum)). In words: fluorescence polarisation. (In general: Fluorescence polarisation rises when a labelled molecule tumbles more slowly, as on binding a larger partner.)

In turn, CPP12-HiBit conjugate (peptide) had a fold induction of luminescence at 10 μM in assay [1] of 200 fold.

Broadly, the Kd is the constant that tells how readily two partners part at equilibrium. A low value points to tighter binding. Take FITC-labeled CPP12 (peptide): the Kd in assay [2] amounted to 29 µM.

As to NF-labeled CPP12 (peptide), the Kd in assay [2] amounted to 1.3 µM.

In assay [2], TMR-labeled CPP12 (peptide) returned a Kd of 27 µM.
